Laboratory results taken from US20240209109A1 (CONCEPT TO MEDICINE BIOTECH, published 2024).

Tests used:
human CD40 on cells [1] = target: T1, human CD40 on cells (human, UniProt P25942 21-277); assay: FACS on human dendritic cells, MFI
T1 construct: whole, on cells; also called cell surface CD40; Jurkat-CD40

human CD40 on cells [2] = target: T1, human CD40 on cells; assay: FACS on Jurkat cells overexpressing human CD40, PE anti-human IgG, MFI
Description: To evaluate their binding affinity to cell surface CD40, chimeric anti-CD40 monospecific antibodies were tested in Jurkat cell lines that overexpressed CD40 by FACS. A total number of 1×10⁵ Jurkat-CD40 cells in each well were incubated with 10-fold serially diluted antibodies starting from 100 nM for 30 minutes at 4° C. in FACS buffer. After wash by FACS buffer, PE conjugated-anti-human IgG antibody was added to each well and incubated at 4° C. for 30 minutes. After wash, MFI of PE was evaluated by MACSQuant Analyzer 16.

T1 sequence (P25942 21-277): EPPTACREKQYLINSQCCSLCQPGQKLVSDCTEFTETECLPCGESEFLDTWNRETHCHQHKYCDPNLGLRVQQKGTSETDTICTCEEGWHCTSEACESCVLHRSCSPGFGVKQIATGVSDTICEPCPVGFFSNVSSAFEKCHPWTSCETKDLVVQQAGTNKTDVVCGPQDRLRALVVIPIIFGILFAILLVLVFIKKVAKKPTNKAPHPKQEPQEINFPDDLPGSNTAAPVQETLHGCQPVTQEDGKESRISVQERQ

EC50 (read off the curve) (human CD40 on cells [1])	EC50 (read off the curve) (human CD40 on cells [2])	Binder
~0.6 nM	–	b16 (42p155z2)-LALA humanized anti-5T4/CD40 bispecific antibody (bispecific antibody, human IgG1, kappa, L234A L235A, 1+2 b16 format, humanized 5T4 arm; also called b16 (42p15522)-LALA) heavy 1: QVQLVQSGAEVKKPGASVKVSCKASGYAFSSSWMNWVRQAPGQGLEWMGRIYREDGHTNYNGKFKGRVTMTADKSITTAYMELSRLRSDDTAVYYCANGGAMDYWGQGTLVTVSSASTKGPSVFPLAPSSKSTSGGTAALGCLVKDYFPEPVTVSWNSGALTSGVHTFPAVLQSSGLYSLSSVVTVPSSSLGTQTYICNVNHKPSNTKVDKKVEPKSCDKTHTCPPCPAPEAAGGPSVFLFPPKPKDTLMISRTPEVTCVVVDVSHEDPEVKFNWYVDGVEVHNAKTKPREEQYNSTYRVVSVLTVLHQDWLNGKEYKCKVSNKALPAPIEKTISKAKGQPREPQVCTLPPSREEMTKNQVSLSCAVKGFYPSDIAVEWESNGQPENNYKTTPPVLDSDGSFFLVSKLTVDKSRWQQGNVFSCSVMHEALHNHYTQKSLSLSPGK light: not shown heavy 2: not shown
–	~0.2 nM	2p1294 chimeric monospecific antibody (antibody, V domains shown, chimeric monospecific antibody made from the alpaca VHH) VH: QVQLVESGGGLVQPGGSLRLSCAASGFSFRRYTMSWVRQAPGKGLEWVSAISDNGAITTYTESAQGRFTISRDNAKNTLYLQMNSLKPEDTAVYYCAQGGGSNYYRESWGQGTQVTVSS
–	~0.2 nM	42p655 chimeric monospecific antibody (antibody, V domains shown, chimeric monospecific antibody made from the alpaca VHH) VH: AVQLVESGGGLVQPGGSLRLSCAASGFAFRRYTMSWVRQAPGKGLEWVSSITDNGSITTYAESAQGRFTISRDNAKNTLYLQMNSLKPEDTAVYHCAQGGGSNYYRESWGQGTQVTVSS
